The text below walks through data of patent publication US20060110789A1, “Methods to mediate polyketide synthase module effectiveness” (priority 2002, published 2006).

Usually Kd stands for the equilibrium constant for the complex coming apart. The Km is the substrate concentration at which the rate is half of its maximum. In general, kcat refers to the number of substrate molecules converted per active site and unit of time at saturation.

Several values for one entry are separate records, joined by “and”; a condition that tells them apart may be missing. Identical values can stand only once.

The target of data set [1] is M3+TE or (5)M3+TE (DEBS module 3 fused to thioesterase). The conditions noted are these: with M3+TE, cited from earlier work.
The subject of data set [2] is cysteamine thioester of 2S,3R-2-methyl-3-hydroxypentanoic acid (diketide). The data set can be described thus: Cell-free synthesis of triketides from diketide thioester by single module constructs. It is filed as biochemical. Conditions: 0.5-10 mM diketide thioester, 2.5 mM 14C-methylmalonyl CoA, 100 pmoles protein, 30 minutes, TLC. The method, then: (§1) A cell-free system, tested for the ability to convert the cysteamine thioester of 2S,3R-2-methyl-3-hydroxypentanoic acid (compound 2 in FIG. 2), consisted of 0.5-10 mM concentration of the thioester, 2.5 mM ^14C-labeled methylmalonyl CoA and 100 pmoles of purified protein prepared in Example 1 in a 100 μl reaction. In some cases, 1 mM of NADPH was added; this was done in assay mixtures containing (M2+TE), (M5+TE) and (M6+TE) proteins. The protein was, in each case, a single module of the DEBS PKS fused to the thioesterase (TE) termination region of module 6.
The reaction mixtures were quenched and extracted by ethyl acetate and separated by thin-layer chromatography (TLC) to discern the formation of the triketide ketolactone 3 and triketide lactone 4 (both shown in FIG. 2) after 30 minutes.
The constructs for (M2+TE) and (M6+TE) were modified by deleting the sequences encoding the amino acids upstream of the KS catalytic domain and substituting the first 39 amino acids from (M5+TE) containing the N-terminal portion of the interpolypeptide linker (N-ERL). The relevant constructs were prepared by replacing the BsaBI-EcoRI fragment in pRSG46 by the corresponding fragment from pCK4 to obtain N-ERL-M2+TE), in plasmid pRSG64, or from pJRJ10 to obtain (N-ERL-M6+TE) in plasmid pRSG54. These constructs yield modules which contain the upstream 39 amino acids from module 5.

The test system of a further data set is diketide thioester. Kind of data set: Kinetic constants kcat and KM of single module constructs converting diketide to triketide. It is filed as biochemical. The method, then: as §1
The various constructs which are successful in converting diketide to triketide were then evaluated for the kinetic constants kcat and KM. […] This is evidently due to the absence of beta-carbonyl modifying enzymes in module 3 as verified by the fact that removal of NADPH, (which is required for the activity of such modules) from the reaction mixture of (N-ERL-M6+TE) also results in a lowering of the kcat.

For data set [3], the system named is individually assayed modules, including M3+TE. The data set can be described thus: Effect of synthetic peptide on individually assayed modules. Type of data set: biochemical. The method, then:
In Vitro Polyketide Production Assays of individual modules contained 1.0 μM protein, 1-10 mM N-acetylcysteamine thioester of the “natural” (2S,3R)-2-methyl-3-hydroxypentanoic acid diketide (NDK) (1), 4 mM NADPH, 440 mM sodium phosphate, 1 mM EDTA, 2.5 mM dithiothreitol (DTT), and 20% w/v glycerol, pH 7.2, in 80 μL. Reactions with M2 or M2(4) included 0.3 mM ^14C-methylmalonyl-CoA (specific activity adjusted to 10.4 mCi/mmol), and those with M3+TE or (5)M3+TE included 0.5 mM ^14C-methylmalonyl-CoA (specific activity reduced to 1.1 mCi/mmol). [M2(4) refers to a derivative of M2 in which the C-terminal linker has been replaced with its counterpart from module 4, whereas (5)M3 refers to a derivative of M3 in which the N-terminal linker has been replaced with its counterpart from module 5 (see FIG. 4).] Both concentrations of methylmalonyl-CoA were saturating, but different concentrations were needed due to the disparate rates of turnover between the modules with and without the thioesterase. The reaction mixtures were preincubated to 30° C. and started with the addition of the methylmalonyl-CoA. […] Product formation was quantified by comparison with standards of the labeled methylmalonyl-CoA. […]
Inhibition of Tetraketide Production. […] The effect of the inhibitor was thus determined by dividing the inhibited rate by the control rate.

The next data set deals with T1, M2 and M3+TE (Saccharopolyspora erythraea, UniProt Q03131).
T1 construct: Plasmid pBP19 contains module 2 of DEBS (M2) and is a derivative of pRSG64; made in house; host or cells: E. coli BL21(DE3) with B. subtilis sfp; pET-21c
The data set can be described thus: Inhibition of tetraketide production by synthetic peptide, M2-M3 linker pair. It is filed as biochemical. Conditions: M2 and M3+TE both 1.0 μM, peptide 1 to 100 μM. The method, then:
(§2) Inhibition of Tetraketide Production. The ability of the synthetic peptide to inhibit the transfer reaction, and thus the production of tetraketide, was tested under the same reaction conditions described for the two module coincubations. The concentrations of M2 and M3+TE were both 1.0 μM, and the concentrations of M2(4) and (5)M3+TE were 0.5 and 1.0 μM, respectively. The only difference was the addition of the peptide at concentrations ranging from 1 to 100 μM to the assay containing M2 and M3+TE [or alternatively M2(4) and (5)M3+TE]. For greater accuracy, each inhibition assay was performed side by side with a control lacking inhibitor. The effect of the inhibitor was thus determined by dividing the inhibited rate by the control rate.

In a further data set the target is T2, M2(4) and (5)M3+TE (Saccharopolyspora erythraea, UniProt Q03131+Q03133, A1559G/A1612M/A1613S/A1621R/A1638S/A1707S/A1714P/A1717D/A1741R/A1766S/A1884G/A1933P/A1935T/A1951R/A1969R/A1973H/A1979Q/A2007V/A2008V/A2011V/A2018D/A2064V/A2138S/D1597P/D1620G/DEL1744-1744/DEL1923-1924/DEL1955-1967/E1628D/E1873D/E1883D/E1925V/E1947G/E1993A/E2004D/F1591L/G1618A/G1705A/G1739A/G1878E/G1927Q/G1930R/G1977A/G1990A/G1997H/G2038E/G2099R/H1599E/H1992T/I1756V/INS1626G/INS1975[…]/K1779R/K2139R/L1590A/L1610V/L1858V/L1941V/L1981F/L1987V/L1995A/L2136R/L2141V/L2144V/N1593S/N1855E/N1936G/P1725G/P1740R/P1870G/P1887E/P1889S/P1982E/Q1619T/Q1732V/Q1746R/Q1994E/Q1998R/Q2070P/R1983E/R1996V/S1600T/S1627V/S1636T/S1637A/S1670T/S1886R/S1937V/S1972D/S2041P/S2089A/S2104V/T1762S/T1948A/T1968G/T1976R/T2012V/T2015S/V1583A/V1601L/V1622P/V1623R/V1640A/V1644I/V1655L/V1708P/V1728S/V1730F/V1851L/V1879I/V1929R/V1931M/V2006A/V2021S/V2103A/V2124A/V2131M/Y1614H).
T2 construct: Plasmid pST179 encodes a derivative of M2 containing the C-terminal linker of DEBS module 4 (M4); made in house; host or cells: E. coli BL21(DE3) with B. subtilis sfp; pET-21c
Kind of data set: Inhibition of tetraketide production by synthetic peptide, M4-M5 linker pair. The conditions noted are these: M2(4) 0.5 μM and (5)M3+TE 1.0 μM, peptide concentrations up to 100 μM. It is filed as biochemical. Here is the method:
as §2

In data set [4] the test system is N-acetylcysteamine thioester of (2S,3R)-2-methyl-3-hydroxypentanoic acid diketide (NDK). Kind of data set: In vitro polyketide production assays of individual modules with NDK (kinetic analysis). Type of data set: biochemical. Conditions: NDK 1-10 mM, 1.0 μM protein, 30° C; M2 and M2(4) only approximate (triketide lactone 3). The method, then: In Vitro Polyketide Production Assays of individual modules contained 1.0 μM protein, 1-10 mM N-acetylcysteamine thioester of the “natural” (2S,3R)-2-methyl-3-hydroxypentanoic acid diketide (NDK) (1), 4 mM NADPH, 440 mM sodium phosphate, 1 mM EDTA, 2.5 mM dithiothreitol (DTT), and 20% w/v glycerol, pH 7.2, in 80 μL. Reactions with M2 or M2(4) included 0.3 mM ^14C-methylmalonyl-CoA (specific activity adjusted to 10.4 mCi/mmol), and those with M3+TE or (5)M3+TE included 0.5 mM ^14C-methylmalonyl-CoA (specific activity reduced to 1.1 mCi/mmol). [M2(4) refers to a derivative of M2 in which the C-terminal linker has been replaced with its counterpart from module 4, whereas (5)M3 refers to a derivative of M3 in which the N-terminal linker has been replaced with its counterpart from module 5 (see FIG. 4).] […] Product formation was quantified by comparison with standards of the labeled methylmalonyl-CoA. […]
Kinetic Analysis. For individual modules, the steady-state turnover number was determined from the time course of triketide formation, normalized to the concentration of protein. The dependence of the rate on substrate concentration was measured by varying the concentration of NDK while maintaining saturating levels of NADPH and methylmalonyl-CoA.

Data set [5] concerns M3+TE or (5)M3+TE (DEBS module 3 fused to thioesterase). Kind of data set: Coincubation of donor module 2 proteins with module 3+TE: tetraketide lactone 2 formation and KD. Conditions: acceptor (5)M3+TE, matched M4-M5 linker pair, saturation curve. It is filed as biochemical. Here is the method: Assays of M2 and M3+TE contained 10 μM M2 and […] M3+TE, 7 mM NDK, 0.5 mM ^14C-methylmalonyl-CoA (specific activity reduced to 3.4 mCi/mmol), 4 mM NADPH, 440 mM sodium phosphate, 1 mM EDTA, 2.5 mM DTT, and 20% w/v glycerol, pH 7.2, in 70 μL. Assays of M2(4) and (5)M3+TE were identical, except they contained 0.5 μM M2(4), 0.5-5 μM (5)M3+TE, and 0.4 mM ^14C-methylmalonyl-CoA (specific activity reduced to 6.2 mCi/mmol). The concentration of M2(4) was limiting in order to facilitate its saturation with (5)M3+TE. The reactions were prewarmed at 30° C. and initiated by the addition of the methylmalonyl-CoA. As described above, 20 μL aliquots were removed at various time points and processed. […]
For tetraketide formation, the rate of production of tetaketide was recorded for varying concentrations of M3+TE [or (5)M3+TE] at a fixed concentration of M2 [or M2(4)] and saturating concentrations of substrates. By fitting the rate dependence of tetraketide to a saturation curve, the maximal velocity (vmax) of tetraketide production was determined, and was assumed to represent the case where every M2 homodimer was productively associated with an M3+TE homodimer. Thus, the affinity of this protein-protein interaction could be calculated from the rate v=kcat[M2−M3] […]

Where [6] appears, read: diketide to triketide, cell-free.
The mark [7] stands for this setting: listed as N-terminal linker of module 3.
[8] abbreviates: listed as synthetic peptide mimic of the N-terminal linker of M3.

With “DEBS1: first protein of 6-deoxyerythronolide B synthase: loading module and extender modules 1 and 2”, in data set [1] (Gokhale et al. 1999, read-out: KD (previously reported value)), the Kd is 2.6 µM. The “rate of formation of the same tetraketide (earlier measurement)” value in data set [1] (Pieper et al. 1997) is 0.23 min⁻¹.

Regarding “ERL−M2+TE: module 2+TE with the first 39 amino acids from (M5+TE), N-terminal interpolypeptide linker (pRSG64)”, the “Triketide Formed” value in data set [2] was “Yes”. Besides, in the data set with diketide thioester (setting [6]), the Km came out at 4.6 ± 0.4 mM and the “kcat × 100” value is 8 ± 0.6 min^−1.

For the substance “ERL−M6+TE: module 6+TE with the first 39 amino acids from (M5+TE), N-terminal interpolypeptide linker (pRSG54)”, the “Triketide Formed” value in data set [2] was “Yes”. Besides, the values for the Km in the data set on diketide thioester (setting [6]) and in the data set on diketide thioester (−NADPH) were 4.3 ± 0.4 mM and 4.1 ± 0.4 mM, respectively. Also, the “kcat × 100” value worked out at 9.5 ± 0.6 min^−1 with diketide thioester (setting [6]) and 4.5 ± 0.7 min^−1 in the data set on diketide thioester (−NADPH).

Turning to “H2N-MTDSEKVAEYLRRATLDLRAARQRIRELESD-amide (H-MTDSEKVAEYLRRATLDLRAARQRIRELESD-NH2) [M3 N-term]”, in data set [3], the “inhibitory effect upon individually assayed modules” value is “no inhibitory effect”. In addition, the “inhibition of tetraketide production” value with M2 and M3+TE (setting [7]) was “inhibit the formation of 2 in the presence of M2 and M3+TE in a concentration-dependent manner”; in the data set with M2 and M3+TE (setting [8]) it was “lowered the overall rate of tetraketide production in a dose-dependent fashion”; in the data set with M2(4) and (5)M3+TE (setting [7]), “No inhibitory effect”; with M2(4) and (5)M3+TE (setting [8]) it was “no such effect”.

As for “M2(4): derivative of M2 containing the C-terminal linker of DEBS module 4 (pST179)”, in data set [4], the kcat was ~0.0005 s⁻¹. Moreover, the “kcat of tetraketide lactone 2 synthesis” value in data set [5] was 0.0123 ± 0.001 s⁻¹ and 0.0123 s⁻¹.

Consider “M5+TE: DEBS module 5 with its natural N-terminal linker fused to thioesterase (pRSG46)”, for which the “Triketide Formed” value in data set [2] is listed as “Yes”. In the data set on diketide thioester (setting [6]), the Km stood at 4.7 ± 0.4 mM and the “kcat × 100” value was found to be 7.5 ± 0.7 min^−1.
